# Legend:
# [1] = target: UBXD1 UBX extension (269–330), for fluorescence anisotropy (human) (UniProt Q9BZV1); experiment: fluorescence polarisation; fluorescence anisotropy; Atto594-labeled UBXD1 proteins, p97 constructs titrated; 50 mM NaKPi pH 7.5, 25 °C; all fitted with stoichiometry n = 1
# ubiquitin (wild type) = ubiquitin (wild type) (UniProt P0CG48); experiment: NMR titration; 1H-15N-HSQC titrations of ubiquitin with UBXD1, UBXD1-eUBX R305A, PUB or the UBX extension; 50 mM sodium potassium phosphate pH 7.5, 25 °C
substance,measurement,setting,value
p97-wt (1–806) (from UniProt P55072 1-806) (enzyme),Kd,[1],191 µM
UBXD1-eUBX R305A (from UniProt Q9BZV1 1-441) (domain or fragment),Kd,ubiquitin (wild type),155 µM
